Data taken from patent publication US20200362018.

T1: S. cerevisiae (Yeast) 20S proteasome, FLAG-tagged (Pre1), P22141
T1 sequence (P22141 1-198, looked up): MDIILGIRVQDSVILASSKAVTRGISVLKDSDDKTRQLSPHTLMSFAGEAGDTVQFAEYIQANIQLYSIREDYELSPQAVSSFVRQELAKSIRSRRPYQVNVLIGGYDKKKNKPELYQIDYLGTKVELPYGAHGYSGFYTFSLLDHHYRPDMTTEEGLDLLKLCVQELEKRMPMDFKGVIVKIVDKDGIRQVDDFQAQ

T2: T. acidophilum (Archaea) 20S proteasome, P25156
T2 chain 1: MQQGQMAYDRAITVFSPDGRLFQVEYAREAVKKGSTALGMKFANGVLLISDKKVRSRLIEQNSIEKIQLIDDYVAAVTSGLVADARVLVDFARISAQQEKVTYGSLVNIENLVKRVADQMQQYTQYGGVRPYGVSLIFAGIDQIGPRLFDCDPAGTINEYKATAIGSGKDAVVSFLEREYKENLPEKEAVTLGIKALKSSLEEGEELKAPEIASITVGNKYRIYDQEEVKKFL
T2 chain 2: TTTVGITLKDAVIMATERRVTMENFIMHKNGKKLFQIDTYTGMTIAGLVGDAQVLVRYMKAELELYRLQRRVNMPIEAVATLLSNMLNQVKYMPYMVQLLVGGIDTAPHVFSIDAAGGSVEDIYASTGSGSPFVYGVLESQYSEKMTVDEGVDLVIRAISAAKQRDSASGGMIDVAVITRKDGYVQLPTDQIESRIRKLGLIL


How the values were obtained:
[1] = target: R. norvegicus (Mammalian) 20S proteasome purified from rat liver
[2] = target: 20S proteasome (source not stated for the experiment)
[3] = target: T1, S. cerevisiae (Yeast) 20S proteasome, …
[4] = target: T2, T. acidophilum (Archaea) 20S …

Row | Protein | in vitro degradation of oxidized calmodulin by purified mammalian 20S proteasomes [1] | in vitro degradation of α-synuclein by purified mammalian 20S proteasomes [1] | time-dependent degradation of α-synuclein by the 20S proteasome, SDS-PAGE with image analysis [2] | degradation of α-synuclein by the 20S proteasome, SDS-PAGE time course [3] | degradation of α-synuclein by the 20S proteasome, SDS-PAGE time course [4]
1 | human PGDH with a C-terminal 6His tag (protein) MHVNGKVALVTGAAQGIGRAFAEALLLKGAKVALVDWNLEAGVQCKAALDEQFEPQKTLFIQCDVADQQQLRDTFRKVVDHFGRLDILVNNAGVNNEKNWEKTLQINLVSVISGTYLGLDYMSKQNGGEGGIIINMSSLAGLMPVAQQPVYCASKHGIVGFTRSAALAANLMNSGVRLNAICPGFVNTAILESIEKEENMGQYIEYKDHIKDMIKYYGILDPPLIANGLITLIEDDALNGAIMKITTSKGIHFQDYDTTPFQAKTQ | OxCam degradation was inhibited by all the candidates | the majority of the CCRs successfully inhibited the degradation of α-synuclein, with the exception of RBBP9 and HRas | – | – | –
2 | human NQO2 (recombinant, His-TEV fragment removed) (protein) MAGKKVLIVYAHQEPKSFNGSLKNVAVDELSRQGCTVTVSDLYAMNLEPRATDKDITGTLSNPEVFNYGVETHEAYKQRSLASDITDEQKKVREADLVIFQFPLYWFSVPAILKGWMDRVLCQGFAFDIPGFYDSGLLQGKLALLSVTTGGTAEMYTKTGVNGDSRYFLWPLQHGTLHFCGFKVLAPQISFAPEIASEEERKGMVAAWSQRLQTIWKEEPIPCTAHWHFGQ | OxCam degradation was inhibited by all the candidates | the majority of the CCRs successfully inhibited the degradation of α-synuclein, with the exception of RBBP9 and HRas | In the presence of NQO2, CBR3, PGDH, NRas, KRas and RhoA, however, there was a marked decrease in the degradation rate. | – | –
3 | human RBBP9 with a C-terminal 6His tag (protein) MASPSKAVIVPGNGGGDVTTHGWYGWVKKELEKIPGFQCLAKNMPDPITARESIWLPFMETELHCDEKTIIIGHSSGAIAAMRYAETHRVYAIVLVSAYTSDLGDENERASGYFTRPWQWEKIKANCPYIVQFGSTDDPFLPWKEQQEVADRLETKLHKFTDCGHFQNTEFHELITVVKSLLKVPA | OxCam degradation was inhibited by all the candidates | – | – | – | –
4 | human CBR3 (recombinant, His tag removed) (protein) MSSCSRVALVTGANRGIGLAIARELCRQFSGDVVLTARDVARGQAAVQQLQAEGLSPRFHQLDIDDLQSIRALRDFLRKEYGGLNVLVNNAAVAFKSDDPMPFDIKAEMTLKTNFFATRNMCNELLPIMKPHGRVVNISSLQCLRAFENCSEDLQERFHSETLTEGDLVDLMKKFVEDTKNEVHEREGWPNSPYGVSKLGVTVLSRILARRLDEKRKADRILVNACCPGPVKTDMDGKDSIRTVEEGAETPVYLALLPPDATEPQGQLVHDKVVQNW | OxCam degradation was inhibited by all the candidates | the majority of the CCRs successfully inhibited the degradation of α-synuclein, with the exception of RBBP9 and HRas | – | Human CBR3 inhibited 20S proteasomes from all tested species. | Human CBR3 inhibited 20S proteasomes from all tested species.
